{"source": "IntAct's records for PubMed 15147197", "parents": {"B1": {"name": "Ferredoxin--NADP reductase (Anabaena sp. (strain PCC 7119)), P21890 (parent)", "chain": "MSNQGAFDGAANVESGSRVFVYEVVGMRQNEETDQTNYPIRKSGSVFIRVPYNRMNQEMQRITRLGGKIVTIQTVSALQQLNGRTTIATVTDASSEIAKSEGNGKATPVKTDSGAKAFAKPPAEEQLKKKDNKGNTMTQAKAKHADVPVNLYRPNAPFIGKVISNEPLVKEGGIGIVQHIKFDLTGGNLKYIEGQSIGIIPPGVDKNGKPEKLRLYSIASTRHGDDVDDKTISLCVRQLEYKHPESGETVYGVCSTYLTHIEPGSEVKITGPVGKEMLLPDDPEANVIMLATGTGIAPMRTYLWRMFKDAERAANPEYQFKGFSWLVFGVPTTPNILYKEELEEIQQKYPDNFRLTYAISREQKNPQGGRMYIQDRVAEHADELWQLIKNQKTHTYICGLRGMEEGIDAALSAAAAKEGVTWSDYQKDLKKAGRWHVETY"}, "B2": {"name": "Ferredoxin--NADP reductase, leaf isozyme, chloroplastic (Pisum sativum (Garden pea)), P10933 (parent)", "chain": "MAAAVTAAVSLPYSNSTSLPIRTSIVAPERLVFKKVSLNNVSISGRVGTIRAQVTTEAPAKVVKHSKKQDENIVVNKFKPKEPYVGRCLLNTKITGDDAPGETWHMVFSTEGEVPYREGQSIGIVPDGIDKNGKPHKLRLYSIASSAIGDFGDSKTVSLCVKRLVYTNDAGEVVKGVCSNFLCDLKPGSEVKITGPVGKEMLMPKDPNATVIMLGTGTGIAPFRSFLWKMFFEKHEDYQFNGLAWLFLGVPTSSSLLYKEEFEKMKEKAPENFRLDFAVSREQVNDKGEKMYIQTRMAQYAEELWELLKKDNTFVYMCGLKGMEKGIDDIMVSLAAKDGIDWIEYKRTLKKAEQWNVEVY"}}}
{"variants_of": "B1", "conditions": "with fer1_nosso petF"}
{"variant": "Y440S", "effect of a mutation on the interaction": "increasing interaction"}
{"variant": "Y440W", "effect of a mutation on the interaction": "increasing interaction"}
{"variants_of": "B1", "conditions": "with fer1_nosso petF", "remark": "another data set of the same source"}
{"variant": "Y440F", "effect of a mutation on the interaction": "increasing interaction"}
{"variants_of": "B2", "conditions": "with fer1_pea PETF"}
{"variant": "MAAAVTAAVSLPYSNSTSLPIRTSIVAPERLVFKKVSLNNVSISGRVGTIRAQVTTEAPAKVVKHSKKQDENIVVNKFKPKEPYVGRCLLNTKITGDDAPGETWHMVFSTEGEVPYREGQSIGIVPDGIDKNGKPHKLRLYSIASSAIGDFGDSKTVSLCVKRLVYTNDAGEVVKGVCSNFLCDLKPGSEVKITGPVGKEMLMPKDPNATVIMLGTGTGIAPFRSFLWKMFFEKHEDYQFNGLAWLFLGVPTSSSLLYKEEFEKMKEKAPENFRLDFAVSREQVNDKGEKMYIQTRMAQYAEELWELLKKDNTFVYMCGLKGMEKGIDDIMVSLAAKDGIDWIEYKRTLKKAEQWNVEVS", "note": "[Y360S]", "effect of a mutation on the interaction": "increasing interaction"}
{"variant": "MAAAVTAAVSLPYSNSTSLPIRTSIVAPERLVFKKVSLNNVSISGRVGTIRAQVTTEAPAKVVKHSKKQDENIVVNKFKPKEPYVGRCLLNTKITGDDAPGETWHMVFSTEGEVPYREGQSIGIVPDGIDKNGKPHKLRLYSIASSAIGDFGDSKTVSLCVKRLVYTNDAGEVVKGVCSNFLCDLKPGSEVKITGPVGKEMLMPKDPNATVIMLGTGTGIAPFRSFLWKMFFEKHEDYQFNGLAWLFLGVPTSSSLLYKEEFEKMKEKAPENFRLDFAVSREQVNDKGEKMYIQTRMAQYAEELWELLKKDNTFVYMCGLKGMEKGIDDIMVSLAAKDGIDWIEYKRTLKKAEQWNVEVW", "note": "[Y360W]", "effect of a mutation on the interaction": "increasing interaction"}
